What was measured:
p53 wild type [1] = molecular target: T1, p53 wild type (Homo sapiens, UniProt P04637 P04637:1-393); assay: EMSA; DnaK-activated, 1 mM ATP; details: tags: bacterial expression, Fraction III; chain copies: 4 inferred; label: 32P; Hind III compatible overhangs
Experimental: (§1) In the first stage, wild type p53 (60 ng) or mutant forms of p53 (180 ng) was incubated with ATP and the indicated activating protein at 30° C. for 30 minutes. In the second stage, the consensus site oligonucleotide was added to the reactions to assay for sequence-specific DNA binding. (A) PAb421; lane 1, 3 and 5 (p53, p53 His 273, and p53 Lys285, respectively), lanes 2, 4 and 6 (PAb421 and p53, p53 His273, and p53 Lys285, respectively). (B) DnaK; lanes 1, 5, and 9 (p53, p53 His273, and p53 Lys285, respectively), lanes 2, 6 and 10 (DO-1 and p53, p53 His273, and p53 Lys285, respectively), lanes 3, 7 and 11 (DnaK and p53, p53 His273, and p53 Lys285, respectively), lanes 4, 8 and 12 (DnaK and p53, p53 His273, and p53 Lys285, respectively, followed by DO-1). […] PAb421-activated p53 (solid bar), DnaK-activated p53 (open bar), casein kinase II-activated p53 (stippled bar).

p53 wild type [2] = molecular target: T1, p53 wild type; assay: EMSA; casein kinase II-activated, 1 mM ATP; details: tags: bacterial expression, Fraction III; chain copies: 4 inferred; label: 32P; Hind III compatible overhangs
Experimental: as §1

T1 sequence (P04637 whole entry, one chain of several): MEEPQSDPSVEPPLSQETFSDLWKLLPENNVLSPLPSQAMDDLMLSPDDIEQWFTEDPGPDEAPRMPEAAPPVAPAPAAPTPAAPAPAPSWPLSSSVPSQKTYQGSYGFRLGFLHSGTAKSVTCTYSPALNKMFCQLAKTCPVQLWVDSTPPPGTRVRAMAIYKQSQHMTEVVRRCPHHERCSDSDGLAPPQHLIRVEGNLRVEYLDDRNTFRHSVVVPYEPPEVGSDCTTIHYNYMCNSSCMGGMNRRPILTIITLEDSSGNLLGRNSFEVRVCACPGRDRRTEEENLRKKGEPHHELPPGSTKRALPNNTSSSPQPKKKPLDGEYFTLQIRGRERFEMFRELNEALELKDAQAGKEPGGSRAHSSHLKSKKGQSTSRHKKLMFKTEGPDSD

B1: PG p53 consensus site (dsDNA)
DNA 1: AGCTTAGACATGCCTAGACATGCCTA
DNA 2: AGCTTAGGCATGTCTAGGCATGTCTA
p53 wild type [1]
  activity: 57 fmol DNA bound/ug protein
p53 wild type [2]
  activity: 64 fmol DNA bound/ug protein

Source: patent US6140058, “Activation of p53 protein” (Newburn Ellis)
